In the supplement of paper PMC7125110:
± gives the standard error. This sample holds only a part of the variants without activity.

B1: glmS ribozyme (parent)
chain: AUAAAAGCGCCAGAACUACAGAAAUGUAGUUGACGAGGAGGAGGUUUAUCGAAUUUUCGGCGGAUGCCUCCAAA

Experiments:
Conditions in all cases: with glucosamine-6-phosphate
[1] = variants of: B1; assay: self-cleavage kobs at 40 uM GlcN6P; higher = faster cleavage; RNA array
Method in brief: (§1)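 Barcoded ribozyme variants on sequenced MiSeq chips were transcribed in situ by E. coli RNA polymerase and followed at 37 °C through a hybridised Cy3 probe. Glucosamine-6-phosphate at 40 μM to 10 mM in HEPES/KCl/Mg(OAc)2 buffer was flowed in, and tiles were imaged over ~14 h. Signals were normalised to baseline and to non-cleaving reference variants, and per-tile medians were fit to one- or two-exponential decays to give kobs. Weighted Michaelis–Menten fits across concentrations gave kcat and KM.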

[2] = variants of: B1; assay: self-cleavage kobs at 640 uM GlcN6P; higher = faster cleavage; RNA array
Method in brief: as §1

[3] = variants of: B1; assay: self-cleavage kobs at 10000 uM GlcN6P; higher = faster cleavage; RNA array
Method in brief: as §1

[4] = variants of: B1; assay: self-cleavage kobs at 160 uM GlcN6P; higher = faster cleavage; RNA array
Method in brief: as §1

[5] = variants of: B1; assay: self-cleavage kobs at 2500 uM GlcN6P; higher = faster cleavage; RNA array
Method in brief: as §1

A15C G63U
self-cleavage kobs at 40 uM GlcN6P [1]: < 1e-05 s⁻¹
self-cleavage kobs at 640 uM GlcN6P [2]: < 1e-05 s⁻¹
self-cleavage kobs at 10000 uM GlcN6P [3]: < 1e-05 s⁻¹

C10G A39C U45A U54G G62C
self-cleavage kobs at 40 uM GlcN6P [1]: < 1e-05 s⁻¹
self-cleavage kobs at 10000 uM GlcN6P [3]: < 1e-05 s⁻¹

U30A A42G
self-cleavage kobs at 40 uM GlcN6P [1]: 0.000294 ± 7.3e-05 s⁻¹
self-cleavage kobs at 640 uM GlcN6P [2]: 0.0017 ± 0.00047 s⁻¹
self-cleavage kobs at 10000 uM GlcN6P [3]: 0.0172 ± 0.0059 s⁻¹

G43C G63U
self-cleavage kobs at 40 uM GlcN6P [1]: < 1e-05 s⁻¹
self-cleavage kobs at 160 uM GlcN6P [4]: < 1e-05 s⁻¹
self-cleavage kobs at 640 uM GlcN6P [2]: < 1e-05 s⁻¹
self-cleavage kobs at 2500 uM GlcN6P [5]: < 1e-05 s⁻¹

A12G G44C C67G
self-cleavage kobs at 40 uM GlcN6P [1]: < 1e-05 s⁻¹
self-cleavage kobs at 10000 uM GlcN6P [3]: 0.000225 ± 4.3e-05 s⁻¹

C16G C34G G60U C61G U65A C67G
self-cleavage kobs at 40 uM GlcN6P [1]: 8.29e-05 ± 1.8e-05 s⁻¹
self-cleavage kobs at 2500 uM GlcN6P [5]: 0.000198 ± 6.9e-05 s⁻¹

G9A G32C A52U
self-cleavage kobs at 40 uM GlcN6P [1]: < 1e-05 s⁻¹
self-cleavage kobs at 10000 uM GlcN6P [3]: < 1e-05 s⁻¹

G13C A15U C16G A39C
self-cleavage kobs at 40 uM GlcN6P [1]: < 1e-05 s⁻¹
self-cleavage kobs at 10000 uM GlcN6P [3]: < 1e-05 s⁻¹

C16A G35U G43C C68U
self-cleavage kobs at 40 uM GlcN6P [1]: < 1e-05 s⁻¹
self-cleavage kobs at 160 uM GlcN6P [4]: < 1e-05 s⁻¹
self-cleavage kobs at 640 uM GlcN6P [2]: < 1e-05 s⁻¹

U30G G38U A39U G66A
self-cleavage kobs at 40 uM GlcN6P [1]: < 1e-05 s⁻¹
self-cleavage kobs at 10000 uM GlcN6P [3]: < 1e-05 s⁻¹

G35C A36G G37A A39G U65A
self-cleavage kobs at 40 uM GlcN6P [1]: < 1e-05 s⁻¹
self-cleavage kobs at 10000 uM GlcN6P [3]: < 1e-05 s⁻¹

U47G U56G G63U
self-cleavage kobs at 40 uM GlcN6P [1]: < 1e-05 s⁻¹

C11U G43C
self-cleavage kobs at 40 uM GlcN6P [1]: < 1e-05 s⁻¹
self-cleavage kobs at 160 uM GlcN6P [4]: < 1e-05 s⁻¹
self-cleavage kobs at 640 uM GlcN6P [2]: < 1e-05 s⁻¹
self-cleavage kobs at 2500 uM GlcN6P [5]: < 1e-05 s⁻¹

A6U G7U A36G U49C C58G
self-cleavage kobs at 40 uM GlcN6P [1]: < 1e-05 s⁻¹
self-cleavage kobs at 640 uM GlcN6P [2]: < 1e-05 s⁻¹
self-cleavage kobs at 2500 uM GlcN6P [5]: < 1e-05 s⁻¹
self-cleavage kobs at 10000 uM GlcN6P [3]: < 1e-05 s⁻¹

G43U U46A U47G C70G
self-cleavage kobs at 40 uM GlcN6P [1]: < 1e-05 s⁻¹
self-cleavage kobs at 640 uM GlcN6P [2]: < 1e-05 s⁻¹
self-cleavage kobs at 2500 uM GlcN6P [5]: < 1e-05 s⁻¹
self-cleavage kobs at 10000 uM GlcN6P [3]: < 1e-05 s⁻¹

G13A A15C G38U A48G A52C
self-cleavage kobs at 40 uM GlcN6P [1]: < 1e-05 s⁻¹
self-cleavage kobs at 10000 uM GlcN6P [3]: < 1e-05 s⁻¹

A36C U65A
self-cleavage kobs at 40 uM GlcN6P [1]: < 1e-05 s⁻¹
self-cleavage kobs at 640 uM GlcN6P [2]: < 1e-05 s⁻¹
self-cleavage kobs at 2500 uM GlcN6P [5]: < 1e-05 s⁻¹

G7U C10A A15U
self-cleavage kobs at 40 uM GlcN6P [1]: < 1e-05 s⁻¹
self-cleavage kobs at 640 uM GlcN6P [2]: < 1e-05 s⁻¹
self-cleavage kobs at 2500 uM GlcN6P [5]: < 1e-05 s⁻¹

G26U C50G A52C U56G G66C C67U C71U
self-cleavage kobs at 40 uM GlcN6P [1]: 0.000243 ± 7.9e-05 s⁻¹
self-cleavage kobs at 640 uM GlcN6P [2]: 0.000548 ± 0.00021 s⁻¹
self-cleavage kobs at 10000 uM GlcN6P [3]: 0.000101 ± 2.7e-05 s⁻¹

G35U U47A C50G C70U
self-cleavage kobs at 40 uM GlcN6P [1]: 0.000411 ± 0.00012 s⁻¹
self-cleavage kobs at 10000 uM GlcN6P [3]: 0.000429 ± 0.00017 s⁻¹

U30A G41A G60A C70U
self-cleavage kobs at 40 uM GlcN6P [1]: < 1e-05 s⁻¹

C50G C70A C71G
self-cleavage kobs at 40 uM GlcN6P [1]: 7.15e-05 ± 1.7e-05 s⁻¹
self-cleavage kobs at 10000 uM GlcN6P [3]: 6.95e-05 ± 1.6e-05 s⁻¹

A33U C34U
self-cleavage kobs at 40 uM GlcN6P [1]: < 1e-05 s⁻¹
self-cleavage kobs at 160 uM GlcN6P [4]: < 1e-05 s⁻¹
self-cleavage kobs at 640 uM GlcN6P [2]: < 1e-05 s⁻¹
self-cleavage kobs at 10000 uM GlcN6P [3]: < 1e-05 s⁻¹

A6C C16A
self-cleavage kobs at 40 uM GlcN6P [1]: < 1e-05 s⁻¹
self-cleavage kobs at 160 uM GlcN6P [4]: < 1e-05 s⁻¹
self-cleavage kobs at 640 uM GlcN6P [2]: < 1e-05 s⁻¹
self-cleavage kobs at 2500 uM GlcN6P [5]: < 1e-05 s⁻¹
